Reference: PMC7652997, “Regulation of γ-Aminobutyrate (GABA) Utilization in Corynebacterium glutamicum by the PucR-Type Transcriptional Regulator GabR and by Alternative Nitrogen and Carbon Sources”
Blank lines part the entries; values can stand above or below the molecule they belong to.

Experiments:
[1] = biological target: GabR (Cg0565), PucR-type transcriptional regulator of Corynebacterium glutamicum (Corynebacterium glutamicum ATCC 13032); experiment: SEC; Tag-free GabR on Superdex 200 Increase 10/300 GL, 100 mM phosphate buffer pH 7.0 with 1 mM DTT, 0.75 mL/min; native size from a calibration curve (Kav versus log Mr) of standard proteins; apparent mass 420 kDa against a theoretical monomer mass of 55.75 kDa
GabR [2] = biological target: T1, GabR (Corynebacterium glutamicum WT, UniProt Q8NT36 1-504); experiment: EMSA; reasonable binding; 10 mM Tris-HCl pH 7.5, 50 mM NaCl, 5% glycerol, 0.005% Triton X-100, 20 min at room temperature; 100 ng DNA, 0-2.6 uM GabR monomer; native PAGE in TB buffer pH; settings: protein: recombinant; tags: N-terminal His10 removed with TEV protease; chain copies: 8; blunt
T1 sequence: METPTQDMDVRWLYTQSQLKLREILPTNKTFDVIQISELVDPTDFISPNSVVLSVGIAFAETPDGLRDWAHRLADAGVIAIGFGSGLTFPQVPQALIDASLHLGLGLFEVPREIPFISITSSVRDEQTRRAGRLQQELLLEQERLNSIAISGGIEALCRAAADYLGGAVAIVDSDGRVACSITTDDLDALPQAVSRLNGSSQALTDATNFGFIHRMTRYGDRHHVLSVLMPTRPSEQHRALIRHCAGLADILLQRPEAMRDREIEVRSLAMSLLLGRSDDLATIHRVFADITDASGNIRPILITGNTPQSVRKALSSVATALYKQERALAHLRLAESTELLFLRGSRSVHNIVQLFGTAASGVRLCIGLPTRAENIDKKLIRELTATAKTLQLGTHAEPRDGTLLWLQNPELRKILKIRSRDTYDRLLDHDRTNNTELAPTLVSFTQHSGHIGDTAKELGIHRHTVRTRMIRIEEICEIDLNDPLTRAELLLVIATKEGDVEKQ

GabR [3] = biological target: T1, GabR; experiment: EMSA; complex band absent from negative control; 10 mM Tris-HCl pH 7.5, 50 mM NaCl, 5% glycerol, 0.005% Triton X-100, 20 min at room temperature; 100 ng DNA, 0-2.6 uM GabR monomer; native PAGE in TB buffer pH; settings: protein: recombinant; tags: N-terminal His10 removed with TEV protease; chain copies: 8; blunt

stoichiometry N [1]: 8
Molecule: GabR (Cg0565), PucR-type transcriptional regulator of Corynebacterium glutamicum (natural protein)

B1: FS3 (dsDNA)
DNA 1: CTGTCAATTATCCATATGGGCGAAATATTGT
DNA 2: ACAATATTTCGCCCATATGGATAATTGACAG
binding result (GabR [2]): binds

B2: NC3 (dsDNA)
DNA 1: CACAGGAGGAACCGTGGAAGATCTCTCATAC
DNA 2: GTATGAGAGATCTTCCACGGTTCCTCCTGTG
binding result (GabR [3]): no binding
